First the molecules themselves.
B1: B06 (antibody, V domains shown)
VH: QAYLQQSGAELVRPGASVKMSCKASGYTFTSYNMHWVKQTPRQGLEWIGAFYPGNGDTSYNQKFKGKATLTVDKSSSTAYMQLSSLTSEDSAVYFCARDGYPYYYAMDYWGQGTSVTVSS
VL: DIKMTQSPSSMYASLGERVTITCKASQDINSFLSWFQQKPGKSPKTLIYRANRLVDGVPSRFSGSGSGQDYSLTISSLEYEDMGIYYCLQYDEFPWTFGGGTKLEIK
B2: A23 (antibody, V domains shown)
VH: QAYLQQSGAELVRPGASVKMSCKASGYTFTSYNMHWVKQTPRQGLEWIGAIYPGNGDTSYNQKFKDKATLTVDKSSSTAYMQLSSLTSGDSAVYFCARDYYGCSYGYFDVWGTGTTVTVSS
VL: DIQMTQTTSSLSASLGDRVTISCSASQGISNYLNWYQQKPDGTVKLLIYYTSSLHSGVPSRFSGSGSGTDYSLTISNLEPEDIATYYCQQYSKLPYTFGGGTKLEIK
B3: B46 (antibody, V domains shown)
VH: QVQLQQPGAELVKPGASVKVSCKASGYTFTSYWMHWVKQRPGQGLEWIGRIHPSDSDTNYNQNFKGKATLTVDKSSSTAYMQLSSLTSEDSAVYYCALDGYYGIWWGQGTLVTVSA
VL: DIVMTQSQKFMSTSVGDRVSVTCKASQNVGTNVAWYQQKPGQSPKALIYSASYRYSGVPDRFTGSGSGTDFTLTISNVQSEDLAEYFCQQCNSYPLTFGGGTKLEIK

Data on three molecules can be found in article PMC9876794 (2022).

A word on the Kd: it is the free concentration of one partner at which half of the binding sites on the other are occupied at equilibrium, for simple one-to-one binding. A high value points to lower affinity.

The assay has as its target SARS-CoV-2 spike RBD (WT) (Severe acute respiratory syndrome …, UniProt P0DTC2). In words: BLI. On the technique in general: BLI is a label-free optical method that tracks binding on a fibre tip over time.
Regarding B1, the affinity, expressed as Kd, was 110 nM.
Turning to B2, the Kd was determined as 850 nM.
On to B3, for which binding was put at a Kd of 282 nM.
